Measured values published in article PMC3902040.

Target: Factor H (CFH) (human) (UniProt P08603)
Test: SPR

UniProt P08603, sequence (P08603 19-1231): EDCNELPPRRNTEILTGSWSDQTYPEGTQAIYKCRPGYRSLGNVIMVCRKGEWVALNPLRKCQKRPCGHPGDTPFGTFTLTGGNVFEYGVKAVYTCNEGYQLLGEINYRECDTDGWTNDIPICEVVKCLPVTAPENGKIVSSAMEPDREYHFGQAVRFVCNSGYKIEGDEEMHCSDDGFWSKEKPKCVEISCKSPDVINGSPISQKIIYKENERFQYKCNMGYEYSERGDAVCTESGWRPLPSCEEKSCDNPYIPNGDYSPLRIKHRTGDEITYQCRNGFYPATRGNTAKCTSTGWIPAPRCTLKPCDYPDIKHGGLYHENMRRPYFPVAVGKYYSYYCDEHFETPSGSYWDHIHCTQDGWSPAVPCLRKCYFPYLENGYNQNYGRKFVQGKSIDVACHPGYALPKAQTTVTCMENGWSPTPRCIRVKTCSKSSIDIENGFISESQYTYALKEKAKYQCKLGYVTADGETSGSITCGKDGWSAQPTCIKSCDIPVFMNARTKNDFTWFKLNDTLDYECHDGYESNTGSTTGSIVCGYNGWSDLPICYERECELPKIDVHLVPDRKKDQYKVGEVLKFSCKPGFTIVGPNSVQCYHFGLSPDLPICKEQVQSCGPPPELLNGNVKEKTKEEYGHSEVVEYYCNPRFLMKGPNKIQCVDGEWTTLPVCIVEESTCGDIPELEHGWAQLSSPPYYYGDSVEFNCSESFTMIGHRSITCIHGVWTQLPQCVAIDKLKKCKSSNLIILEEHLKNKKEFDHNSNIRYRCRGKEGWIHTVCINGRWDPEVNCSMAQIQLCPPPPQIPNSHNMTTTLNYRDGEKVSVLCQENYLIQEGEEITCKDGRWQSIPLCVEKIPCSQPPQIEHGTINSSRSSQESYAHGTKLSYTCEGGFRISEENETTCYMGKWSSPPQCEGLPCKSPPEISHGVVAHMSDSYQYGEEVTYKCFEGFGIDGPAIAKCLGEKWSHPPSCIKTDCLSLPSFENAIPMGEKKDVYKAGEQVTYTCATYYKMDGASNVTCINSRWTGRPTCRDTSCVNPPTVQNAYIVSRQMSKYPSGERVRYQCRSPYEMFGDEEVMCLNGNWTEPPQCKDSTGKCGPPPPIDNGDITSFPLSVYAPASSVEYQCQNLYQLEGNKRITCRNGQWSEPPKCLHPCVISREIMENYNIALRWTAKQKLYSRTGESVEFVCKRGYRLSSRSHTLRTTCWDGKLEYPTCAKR

Substance: 155Q C3 protein (C3 K155Q variant, rs147859257), methylamine-treated C3 (MA) (natural protein)
- reduced binding against 155K C3 (percent): 60%
